# From US20090118185A1 (UNIVERSITY OF ROCHESTER, published 2009)
# Changes are numbered by the printed parent chain.
# B1: WT factor VIIIa (B-domainless recombinant human factor VIII activated by thrombin) (other)
# chain 1: ATRRYYLGAVELSWDYMQSDLGELPVDARFPPRVPKSFPFNTSVVYKKTLFVEFTVHLFNIAKPRPPWMGLLGPTIQAEVYDTVVITLKNMASHPVSLHAVGVSYWKASEGAEYDDQTSQREKEDDKVFPGGSHTYVWQVLKENGPMASDPLCLTYSYLSHVDLVKDLNSGLIGALLVCREGSLAKEKTQTLHKFILLFAVFDEGKSWHSETKNSLMQDRDAASARAWPKMHTVNGYVNRSLPGLIGCHRKSVYWHVIGMGTTPEVHSIFLEGHTFLVRNHRQASLEISPITFLTAQTLLMDLGQFLLFCHISSHQHDGMEAYVKVDSCPEEPQLRMKNNEEAEDYDDDLTDSEMDVVRFDDDNSPSFIQIR
# chain 2: SVAKKHPKTWVHYIAAEEEDWDYAPLVLAPDDRSYKSQYLNNGPQRIGRKYKKVRFMAYTDETFKTREAIQHESGILGPLLYGEVGDTLLIIFKNQASRPYNIYPHGITDVRPLYSRRLPKGVKHLKDFPILPGEIFKYKWTVTVEDGPTKSDPRCLTRYYSSFVNMERDLASGLIGPLLICYKESVDQRGNQIMSDKRNVILFSVFDENRSWYLTENIQRFLPNPAGVQLEDPEFQASNIMHSINGYVFDSLQLSVCLHEVAYWYILSIGAQTDFLSVFFSGYTFKHKMVYEDTLTLFPFSGETVFMSMENPGLWILGCHNSDFRNRGMTALLKVSSCDKNTGDYYEDSYEDISAYLLSKNNAIEPR
# chain 3: SFQKKTRHYFIAAVERLWDYGMSSSPHVLRNRAQSGSVPQFKKVVFQEFTDGSFTQPLYRGELNEHLGLLGPYIRAEVEDNIMVTFRNQASRPYSFYSSLISYEEDQRQGAEPRKNFVKPNETKTYFWKVQHHMAPTKDEFDCKAWAYFSDVDLEKDVHSGLIGPLLVCHTNTLNPAHGRQVTVQEFALFFTIFDETKSWYFTENMERNCRAPCNIQMEDPTFKENYRFHAINGYIMDTLPGLVMAQDQRIRWYLLSMGSNENIHSIHFSGHVFTVRKKEEYKMALYNLYPGVFETVEMLPSKAGIWRVECLIGEHLHAGMSTLFLVYSNKCQTPLGMASGHIRDFQITASGQYGQWAPKLARLHYSGSINAWSTKEPFSWIKVDLLAPMIIHGIKTQGARQKFSSLYISQFIIMYSLDGKKWQTYRGNSTGTLMVFFGNVDSSGIKHNIFNPPIIARYIRLHPTHYSIRSTLRMELMGCDLNSCSMPLGMESKAISDAQITASSYFTNMFATWSPSKARLHLQGRSNAWRPQVNNPKEWLQVDFQKTMKVTGVTTQGVKSLLTSMYVKEFLISSSQDGHQWTLFFQNGKVKVFQGNQDSFTPVVNSLDPPLLTRYLRIHPQSWVHQIALRMEVLGCEAQDLY
# B2: 336(P1′-P3′)562 factor VIIIa mutant (other)
# chain 1: B1 chain 1 with M337G, K338N, N339Q
# chain 2: B1 chain 2
# chain 3: B1 chain 3
# B3: 336(P4-P2)562 factor VIIIa mutant (other)
# chain 1: B1 chain 1 with P333V, Q334D, L335Q
# chain 2: B1 chain 2
# chain 3: B1 chain 3
# B4: 562(P4-P2)336 factor VIII mutant (procofactor) (other)
# chain 1: ATRRYYLGAVELSWDYMQSDLGELPVDARFPPRVPKSFPFNTSVVYKKTLFVEFTVHLFNIAKPRPPWMGLLGPTIQAEVYDTVVITLKNMASHPVSLHAVGVSYWKASEGAEYDDQTSQREKEDDKVFPGGSHTYVWQVLKENGPMASDPLCLTYSYLSHVDLVKDLNSGLIGALLVCREGSLAKEKTQTLHKFILLFAVFDEGKSWHSETKNSLMQDRDAASARAWPKMHTVNGYVNRSLPGLIGCHRKSVYWHVIGMGTTPEVHSIFLEGHTFLVRNHRQASLEISPITFLTAQTLLMDLGQFLLFCHISSHQHDGMEAYVKVDSCPEEPQLRMKNNEEAEDYDDDLTDSEMDVVRFDDDNSPSFIQIRSVAKKHPKTWVHYIAAEEEDWDYAPLVLAPDDRSYKSQYLNNGPQRIGRKYKKVRFMAYTDETFKTREAIQHESGILGPLLYGEVGDTLLIIFKNQASRPYNIYPHGITDVRPLYSRRLPKGVKHLKDFPILPGEIFKYKWTVTVEDGPTKSDPRCLTRYYSSFVNMERDLASGLIGPLLICYKESPQLRGNQIMSDKRNVILFSVFDENRSWYLTENIQRFLPNPAGVQLEDPEFQASNIMHSINGYVFDSLQLSVCLHEVAYWYILSIGAQTDFLSVFFSGYTFKHKMVYEDTLTLFPFSGETVFMSMENPGLWILGCHNSDFRNRGMTALLKVSSCDKNTGDYYEDSYEDISAYLLSKNNAIEPR
# chain 2: B1 chain 3
# B5: 562(P4-P3′)336 factor VIII mutant (procofactor) (other)
# chain 1: B4 chain 1 with G563M, N564K, Q565N
# chain 2: B1 chain 3
# B6: 336(P4-P3′)562 factor VIIIa mutant (other)
# chain 1: B1 chain 1 with P333V, Q334D, L335Q, M337G, K338N, N339Q
# chain 2: B1 chain 2
# chain 3: B1 chain 3
# notes: residues 333-339 replaced by residues 559-565; also called fully substituted P4-P3′ mutant
# How the values were obtained:
# [1] = test system: 336(P1′-P3′)562 factor VIII mutant (procofactor)
# [2] = test system: 336(P4-P2)562 factor VIII mutant (procofactor)
# [3] = test system: 336(P4-P3′)562 factor VIII mutant (procofactor)
# [4] = test system: 562(P4-P2)336 factor VIII mutant (procofactor)
# [5] = test system: 562(P4-P3′)336 factor VIII mutant (procofactor)
# [6] = molecular target: T1, human activated protein C (human, UniProt P04070 43-197; P04070 212-461); assay: cell-based or functional assay
# [7] = molecular target: T1, human activated protein C; assay: cell-based or functional assay; remark: listed apart in the source
# [8] = molecular target: T1, human activated protein C; assay: Ki from competitive inhibition of APC cleavage against the literature Km (102 nM) of WT factor VIIIa for APC
# Method: The amount of the A1336 (nM) generated over time was determined based on the amount of WT A1 substrate, calculated by subtracting the amount of the mutant A1 from the total amount of A1 subunit.
# The rationale for this approach was that if proteinase binding to the mutant were unaffected, then it would efficiently compete with the WT substrate. Furthermore, since the mutant remains essentially uncleaved at the A1 site during a truncated time course, it would serve as an inhibitor of detected cleavage of the WT substrate.
# [9] = molecular target: T1, human activated protein C; assay: competitive inhibition of APC-catalysed cleavage of WT factor VIIIa A1 subunit by the mutant (0-200 nM); Western blot densitometry, fit to competitive inhibition model with Km 102 nM
# Method: Aliquots were taken at various time points (0-20 min) and subjected to SDS-PAGE. […] The amount of the A1336 (nM) generated over time was determined based on the amount of WT A1 substrate, calculated by subtracting the amount of the mutant A1 from the total amount of A1 subunit.
# Factor VIII (130 nM) was activated by addition of 10-20 nM thrombin in 20 mM HEPES pH 7.2, 100 mM NaCl, 5 mM CaCl₂, 0.01 % Tween 20, and 100 μg/ml bovine serum albumin (Buffer A) and reactions were run at 37° C. Thrombin was inhibited after 2 min by the addition of 10-20 U/ml hirudin, and the resultant factor VIIIa was reacted with APC (2 or 40 nM) in the presence of 100 μM phospholipid vesicles. Aliquots were removed at the indicated times to assess residual factor VIIIa activity by factor Xa generation assay and proteolysis of subunits by Western blotting.
# T1 sequence (P04070 43-197, chain 1 of 2): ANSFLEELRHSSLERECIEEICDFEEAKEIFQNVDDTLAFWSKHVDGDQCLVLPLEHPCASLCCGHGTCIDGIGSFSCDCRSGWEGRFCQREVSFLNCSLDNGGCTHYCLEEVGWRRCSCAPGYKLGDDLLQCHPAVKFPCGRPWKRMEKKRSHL
# T1 sequence (P04070 212-461, chain 2 of 2): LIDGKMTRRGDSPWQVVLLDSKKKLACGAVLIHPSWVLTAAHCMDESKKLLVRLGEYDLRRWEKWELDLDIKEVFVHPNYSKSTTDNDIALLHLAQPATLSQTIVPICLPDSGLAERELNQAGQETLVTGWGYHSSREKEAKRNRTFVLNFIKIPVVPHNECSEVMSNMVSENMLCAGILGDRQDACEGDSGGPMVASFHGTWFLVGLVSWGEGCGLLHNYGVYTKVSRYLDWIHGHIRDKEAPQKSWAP
molecule,measurement,setting,value
α-thrombin,rates of cleavage of factor VIII and the generation of factor VIIIa subunits,[1],indistinguishable from that for WT factor VIII
same,rates of cleavage of factor VIII and the generation of factor VIIIa subunits,[2],indistinguishable from that for WT factor VIII
same,rates of cleavage of factor VIII and the generation of factor VIIIa subunits,[3],indistinguishable from that for WT factor VIII
same,rates of cleavage of factor VIII and the generation of factor VIIIa subunits,[4],indistinguishable from that for WT factor VIII
same,rates of cleavage of factor VIII and the generation of factor VIIIa subunits,[5],indistinguishable from that for WT factor VIII
B1,Inactivation (nM FVIIIa/min/nM APC),[6],5.4 nM FVIIIa/min/nM APC
B2,fold reduction of inactivation rate compared to WT factor VIIIa,[7],6 to 11 fold
same,Inactivation (nM FVIIIa/min/nM APC),[6],0.9 nM FVIIIa/min/nM APC
B3,fold reduction of inactivation rate compared to WT factor VIIIa,[7],6 to 11 fold
same,Inactivation (nM FVIIIa/min/nM APC),[6],0.5 nM FVIIIa/min/nM APC
B4,fold increase of rate of generation of the A2c fragment compared with WT factor VIII,[7],6 fold
B5,fold increase of rate of generation of the A2c fragment compared with WT factor VIII,[7],27 fold
B6,Inactivation (nM FVIIIa/min/nM APC),[6],0.8 nM FVIIIa/min/nM APC
same,fold Ki less than the Km for WT substrate,[8],~3 fold
same,Ki,[9],36 nM
